Measured values from patent US20200369769A1 (Bayer, published 2020).

T1: human ILDR2 (Immunoglobulin Like Domain Containing Receptor 2) (human, UniProt Q71H61 21-639)
T1 construct: whole, on cells; In the MLR assay the target is endogenous ILDR2 on primary donor cells; also called C1ORF32; huILDR2
T1 sequence (looked up): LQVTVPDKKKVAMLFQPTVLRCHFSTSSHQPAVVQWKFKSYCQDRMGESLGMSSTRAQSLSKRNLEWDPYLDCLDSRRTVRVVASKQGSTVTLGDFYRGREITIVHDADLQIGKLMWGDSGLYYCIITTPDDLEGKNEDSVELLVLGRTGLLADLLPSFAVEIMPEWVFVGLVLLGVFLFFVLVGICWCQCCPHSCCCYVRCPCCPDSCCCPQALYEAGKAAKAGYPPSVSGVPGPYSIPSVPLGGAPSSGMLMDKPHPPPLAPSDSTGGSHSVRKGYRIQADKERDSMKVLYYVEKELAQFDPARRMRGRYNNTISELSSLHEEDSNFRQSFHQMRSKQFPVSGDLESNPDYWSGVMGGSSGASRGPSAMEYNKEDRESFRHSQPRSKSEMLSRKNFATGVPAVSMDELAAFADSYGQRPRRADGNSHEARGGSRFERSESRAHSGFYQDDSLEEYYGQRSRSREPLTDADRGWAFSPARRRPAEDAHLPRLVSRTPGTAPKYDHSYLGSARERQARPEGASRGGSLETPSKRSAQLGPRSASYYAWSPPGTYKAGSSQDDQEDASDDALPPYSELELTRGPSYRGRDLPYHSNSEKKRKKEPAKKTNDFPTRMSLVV


Legend:
[1] = molecular target: T1, human ILDR2 (Immunoglobulin Like Domain …); assay: flow cytometry titration of hIgG1 on HEK cells stably transfected with human ILDR2; 1:1 equilibrium fit of MFI
Description: KD values were determined by flowcytometric quantitation of binding to HEK cells stably transfected with human ILDR2 and use of an algorithm designed to extrapolate affinities based on the binding curve. Briefly, hIgG1 s were added at a binding site concentration range of 3 pM-209 nM to a constant number of cells (100,000 cells/well) over 16 wells in a 96-well plate. One well contained cells without any added IgG to serve as a blank well. The cells were equilibrated for 4 hours at 4° C. An excess of Cy5-labeled goat anti-human polyclonal antibody (Jackson ImmunoResearch 109-606-097) at 90nM was added to each well after one FACS buffer wash of the cells. Cells were washed twice after a 30 minute incubation (at 4° C.) with the labeling pAb and then the Mean Fluorescence Intensity (MFI) was recorded over approximately 10,000 “events” using an Intellicyte flow cytometer. The […] of the IgGs binding to HEK 293 cells expressing ILDR2 were estimated by fitting the MFI vs. the IgG binding site concentration curve using a 1:1 equilibrium model as detailed in Drake and Klakamp (2007).

[2] = molecular target: T1, human ILDR2 (Immunoglobulin Like Domain …); assay: cell-based or functional assay

| Binder | Kd [1] [nM] | IL2 concentration (% over isotype control), mixed lymphocyte reaction [2] [% over isotype control] |
| --- | --- | --- |
| 74.15.G09 (antibody, V domains shown, Full length IgG; The KD assay says 'hIgG1s') VH: EVQLVESGGGVVQPGRSLRLSCAASGFTFSSYGMHWVRQAPGKGLEWVAVISYDGSNKYYADSVKGRFTISRDNSKNTLYLQMNSLRAEDTAVYYCAKESPSVGLGSYYDFWSGLYGMDVWGQGTTVTVSS VL: EIVLTQSPGTLSLSPGERVTLSCRTGQRVENLFIAWYQQKPGQAPRLLLYGASNRATGIPDRFSGSGSGTDFTLTISRLEPEDSAVYYCQQYDDSGITFGQGTRLEIK | 12.4 | 86 |
| 56-02.E08 (antibody, V domains shown, Full length IgG; The KD assay says 'hIgG1s') VH: EVQLVQSGAEVKKPGESLKISCKASGYSFTTYWIGWVRQVPGKGLEWMGIIYPGDYDTRYSPSFQGQVTISADKSINTAYLQWSSLEASDSAMYYCAIGEPFDYWGQGTLVTVSS VL: not shown | 2.7 | 74 |
| 61-02.C05 (antibody, V domains shown, Full length IgG; The KD assay says 'hIgG1s'; also called 61-02.005) VH: EVQLVESGGGVVQPGGSLRLSCAASGFTFSSYAMSWVRQAPGKGLEWVSGISSSGGSTQYADSVKGRFTVSRDNSKNTLYLQMKSLRAEDTALYYCAKDFVGVLPDAFDIWGQGTMVTVSS VL: DIQLTQSPSSLSASVGDRVTITCQASQDTNKYLNWYQQKPGKAPELLIYGASTLESGVPPRFSASGSGTDFTLTINSLQPEDIGRYYCQQYHIPPPSFGGGTKLEIK | 10.7 | 82 |
| 59-08.B02 (antibody, V domains shown, also called BAY1905254; aILDR2) VH: QVQLVQSGAEVKKPGSSVKVSCKASGGTFSSYAISWVRQAPGQGLEWMGGIIPILGIANYAQKFQGRVTITADKSTSTAYMELSSLRSEDTAVYYCARGRLPYGDFWDSWGQGTLVTVSS VL: not shown | 2 | 91 |
| 56.02.E10 (antibody, V domains shown) VH: QVQLVESGGGLVKPGGSLRLSCAASGFTFSNYGMHWVRQAPGKGPEWLAFIRYDGSKKYYADSVRGRFTISRDNSKNMLYLQMNSLRTEDTAVYYCAKEGIAAPGSGYYYGMDVWGQGTTVTVSS VL: QSALTQPASVSGSPGQSITISCSGTTTDVGRYTLVSWYQHHPGKAPKLIIFEVNKRPSGVSSRFSGSKSGNTASLTISGLQTEDEADYFCCSYTGTTVIFGGGTQLTVL | – | 223 |
